Consider 16 sequences from the DeepSol protein solubility set.

The data set in a line: soluble on expression in E. coli; label from the status in PepcDB or PDB records.
As for “MLKPKEINTENKSKKRIYLSSPHMSDEGYEKQYINEAFETNWIAPLGKNVDEFEKELAAKVGIKAAAALSSGTAAIHMALKAAGVGEGDIVFCPTLTFAATANPIIYQNAIPVFIDSDYETWNMSPEALEEAFKKYPKVKAVLVVHLYGLSADMDKIVEICKKHDVQLIEDAAESLGTTYKGRYTGTIGDYGIYSFNGNKIITTSGGGMLVSDNEERIAKVRFWATQARDNARHYQHSELGYNYRMSNVIAGIGRGQLKVLDQRIEKKRYIFDFYKRELGCIDEIDFMPVNDWNKPNCWLTCITLTGKVRPLDVIIRLEEENIESRPVWKPMHMQPFYQHYDYIGSNVSEKIFENGVCLPSDTKMTDEDLYRVVNIIKGLWK”, the “soluble on expression in E. coli” value is “not soluble”.
The result for “MHHHHHHSSGVDLGTENLYFQSMNITKGGLVLFSANSNSSCMELSKKIAERLGVEMGKVQVYQEPNRETRVQIQESVRGKDVFIIQTVSKDVNTTIMELLIMVYACKTSCAKSIIGVIPYFPYSKQCKMRKRGSIVSKLLASMMCKAGLTHLITMDLHQKEIQGFFNIPVDNLRASPFLLQYIQEEIPDYRNAVIVAKSPASAKRAQSFAERLRLGIAVIHGEAQDAESDLVDGRHSPPMVRSVAAIHPSLEIPMLIPKEKPPITVVGDVGGRIAIIVDDIIDDVDSFLAAAETLKERGAYKIFVMATHGLLSSDAPRRIEESAIDEVVVTNTIPHEVQKLQCPKIKTVDISMILSEAIRRIHNGESMSYLFRNIGLDD” reads “soluble”; that for “MATESGSDSQLRRRRRRDPEGSEKTELSEREPALAVAGSEENDDENEERWVGPLPVEATLAKKRKVLEFERVYLDNLPSASMYERSYMHRDVITHVVCTKTDFIITASHDGHVKFWKKIEEGIEFVKHFRSHLGVIESIAVSSEGALFCSVGDDKAMKVFDVVNFDMINMLKLGYFPGQCEWIYCPGDAISSVAASEKSTGKIFIYDGRGDNQPLHIFDKLHVSPLTQIRLNPVYKAVVSSDKSGMIEYWTGPPHEYKFPKNVNWEYKTDTDLYEFAKCKAYPTSICFSPDGKKIATIGSDRKVRIFRFLTGKLMRVFDESLSMFTELQQMRQQLPDMEFGRRMAVERELEKVDAVRLVNIVFDETGHFVLYGTMLGIKVINVEPNRCVRILGKQENIRVMQLALFQGIAKKHRAAATIEMKASENPVLQNIQADPTIVCTSFKKNRFYMFTKRETEDTKTADSDRDVFNEKPSKEEVMAATQAEGPKRVSDSAIVHTSMGDIHIKLFPVECPKTVENFCVHSRNGYYNGHTFHRIIKGFMIQTGDPTGTGMGGESIWGGEFEDEFHSTLRHDRPYTLSMANAGSNTNGSQFFITVVPTPWLDNKHTVFGRVSKGMEVVQRIFNVKVNPQTDKPYEDVSIINITVK”, “soluble”.
As for “MGHHHHHHSHMKATSVIDDFLGGYFCILGLLQPHLERVAIDALQLCCLLLPPPNRRKLQLLMRMISRMSQNVDMPKLHDAMGTRSLMIHTFSRCVLCCAEEVDLDELLAGRLVSFLMDHHQEILQVPSYLQTAVEKHLDYLKKGHIENPGDGLFAPLPTYSYCKQISAQEFDEQKVSTSQAAIAELLENIIKNRSLPLKEKRKKLKQFQKEYPLIYQKRFPTTESEAALFGDKPTIKQPMLILRKPKFRSLR”, the “soluble on expression in E. coli” value was “not soluble”.
The result for “MPNYRGRHQTRQNWSSKPREEHSPSKGAYRDKIWSGPVSEVARQQTVYDWVTTGAYSLGSPDSWPSYPDEIILMNESRNAQTSRMSRRSATPGPRLSQDRRTRTTAPAVAPIPFQRAQPRVEVERQRIDEPVAQDLIIDDGNGTNNSNDSSICGFVEESEELVYPQWVYYLYPLIPTAPNCNNEKSYKEGGNWYNSP” reads “not soluble”.
As to “MSLDVEDTVKKLNLKFRNIEGERLILAITCDENKNVLMVAFMNEEALKKTLETGYMHYYSTSRKKLWRKGEESGNVQKLIKFYRDCDGDALLFIVEQKGVACHEGYYSCFHYKIEDGELKITGEYYSKREGHHHHHH”, the “soluble on expression in E. coli” value is recorded as “soluble”.
The result for “GSSVSSVPTKLEVVAATPTSLLISWDAPMSSSSVYYYRITYGETGGNSPVQEFTVPYSSSTATISGLSPGVDYTITVYAWGEDSAGYMFMYSPISINYRTC” reads “soluble”; that for “MGSDKIHHHHHHMAKSKIDELMSVGIDIGKDTFHVVAFDPDGHLVMRKRIKRLALVATFEKLPRCVVGMEACLSAHFVSRTLRKMGFEPGIIPAIYVKPFIKGQKNDYNYAEAISEAALRPNLPVVPEKSQEQLDLQALHRVRSRLVSRRTASINQIRAFLIEQGITVRKGLRVLKNSFGKILDERKDEISPRMRTILIGLYGDWLWLDDRIDTVSKEIEQISRTEENCINVMTVPGIGPMISTAMVAAIGTGEAFGRGRDFAAWVGLVPRQYSTGGRTILGRITKRGSRYLRMLFVQAAKVILMRTNRWPDFSFGDWLIKAAERMNRNKLAVALANKLARMA”, “not soluble”; that for “GKKQEPYEQVTIDVEEQHQGSVMEALGIRKGEVRDMLPDGKGRVRLEYIIPSRGLIGFRGDFMTMTSGTGLLYSSFSHYDEIKGGEIGQRKNGVLISNATGKALGYALFGLQERGKLMIDANIEVYEGQI”, “not soluble”.
The result for “MGLDDALIFTRVVEYHSFTQAAQSLGMQKSTVSRRIALLEERLGVRLLNRTTRKLRLTEVGQAYYERCRQIMHDFAEAEQAVMQLQQAPSGLLRITSPIEFGQMFLASLLGDFMRQYPQITAEVELASRSVDPLQEGVDIVIMVGQPEDSTLVARRLLSTSRWLCASPDYLAAHGTPTSVAELAGHRAVLLSTDSQRYWPLSGDSLPCQRVLSCNNITFAREAVVAGAGIAALPALICAESVHSGRLVRLLADVPLPVGELYAVYPSRRFQAMKVKAFLDFLISRLPADTGRLLEPEAARLITSRP” reads “not soluble”; that for “MPDYLVVLQAAWIVRKARSVEDAMNIAVAEAGKKLNPDLDFVKIDVGDTACPKCNSPLKAVFMVAGVALVGLIFEMKVFNAKSPEHAAKIAKYEIGKRMPRIPLEVIEVAEIE”, “not soluble”; that for “MRKLKYQRDFFPLLHLNYGSNWRCGMDRIAYFKSLLEKNPDNPMVHYSLGLEYFKVKDYENAIKHLERYLELQEDEGAAYRTLAKCYEELGEFQKAIEVLEEGIRQAMKYNHPSMAQEYQQWIEELKGMAFLEHHHHHH”, “not soluble”.
The result for “MAPRDIRPGAEYGDIIEEAIVTCKVFLIVFSETSQISRWVRSELNIGFSSNKPIIPFRIDPTDLKGSMKLMLNDKHWLNAYPNPEEKFSELAAVILDLLQHPAVDTISPPGFQPASNVASADGSNAGAQGLFGKLLNQLFVKRRVKVTSDHAAEIFLNGERKGKLDAYETGNYSVSEDFYQLEVYSCEYGKKVKCEYSGSFSNSSTVIISVDMATAEKQYLMKAKNITSGQINDLGIIFLDEGKFEDAQECFLKAASMGEAAAAYNLGMMYHFGKGVEIDYDVAREYYEEAVKSDYPLALNNLGSIYYNGHGVRKDIAKSFPYFCRAAERGVESAQFTVATMLFYGQGVAVDKAKAKKWFQKAAAQGCKDSQNYLNSWVDDLEHHHHHH” reads “soluble”; that for “MVQPDDVLLGRYKIRFDIGPGRIGRIFAVLDQQDQSRSRVKVIKVLPMVAGEQFLDDPQTYNEFDFLNHLRGTIGVPNIIQHFQVGRERVMMMDKYLATLEQFRTRCDDRRISDLNIIKIAVRLVNVLEAIHQKGVIHRDLKTTNVMIRSRGQSEVNLVLIDYGLSTFNGTPPRALAPDAKSPEIMFRGHTHVSPALEEGLKADAVDDLQMLAIMLIWCSAYHPFGPIGQESSRKKAEFITNPVKYVKGRPFLRPLMTAIMAQPRGTRPNYQAILDAAAGPFPIDDIRDSLKTEISLLGVRFL”, “not soluble”; that for “MGEVRVVGIRVEQPQNQPVLLLREANGDRYLPIWIGQSEAAAIALEQQGVEPPRPLTHDLIRDLIAALGHSLKEVRIVDLQEGTFYADLIFDRNIKVSARPSDSVAIALRVGVPIYVEEAVLAQAGLLIPDESDEEATTAVREDEVEKFKEFLDSVSPDDFKAT”, “soluble”.
On to “MPNVVGVQFQKAGKLEYYAPNQLDVEVGDWVVVQSKRGIEIGHVKFPLREVDVEDVTLPLKNIIRKMNEDDQETYYRNERDANDALELCKKVVKDQQLDMRLVNCEYTLDKSKVIFNFTADDRIDFRKLVKVLAQNLKTRIELRQIGVRDEAKLLGGIGPCGRSLCCSTFLGDFEPVSIKMAKDQNLSLNPTKISGACGRLMCCLKYENDYYEEARTQLPDVGDMIQTPDGHGKVIGLNILDISMQVKIEGLEQPLEYKMEEIEVLNLEHHHHHH”, for which the “soluble on expression in E. coli” value is given as “not soluble”.
